# Measured values from PMC4970670, “Mek1 Down Regulates Rad51 Activity during Yeast Meiosis by Phosphorylation of Hed1” (PLoS Genetics, 2016).
# Substitutions are numbered along the chain they refer to.
# T1: Rad51 (S. cerevisiae, UniProt P25454 1-400)
# T1 construct: Rad51 recombinase of S. cerevisiae; Used as 0.6 ug of protein in the pull-down
# T1 sequence (looked up): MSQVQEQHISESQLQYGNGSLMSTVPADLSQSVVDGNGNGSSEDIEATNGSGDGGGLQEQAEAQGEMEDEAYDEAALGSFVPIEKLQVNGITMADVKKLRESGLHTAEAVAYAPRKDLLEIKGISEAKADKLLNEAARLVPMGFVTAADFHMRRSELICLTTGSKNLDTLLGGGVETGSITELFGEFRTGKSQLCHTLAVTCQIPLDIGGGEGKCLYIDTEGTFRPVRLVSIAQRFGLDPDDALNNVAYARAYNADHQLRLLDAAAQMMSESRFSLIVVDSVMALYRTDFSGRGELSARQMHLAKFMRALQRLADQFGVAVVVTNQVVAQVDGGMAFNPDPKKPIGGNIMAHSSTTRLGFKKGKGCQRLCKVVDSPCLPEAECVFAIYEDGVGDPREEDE
# B1: GST-Hed1 (natural protein, S. cerevisiae, UniProt Q03937 1-162, looked up)
# chain: MQQRSNRRSCSYIPLGVHNNAEKSLCTEVAPARKNKRSITTSPIVNINVVERRLFNLELEKQQLRAKNLSENTGGGSPNGGAYLDAKKGVREQDQYQGGPSKELDRLQPPPSMKKSPPRKKKSLKDLIYETNKTFYQVDSNKVKYKVGLSKKQLLPSKTVDN
# notes: Hed1, meiosis-specific protein of S. cerevisiae; also called GST-Hed1 WT; recombinant GST-Hed1; source: E. coli, purified
# B2: GST-Hed1-3A (natural protein, S. cerevisiae, UniProt Q03937 1-162, looked up)
# chain: B1 chain with T40A, T41A, S42A
# notes: Hed1, meiosis-specific protein of S. cerevisiae, with T40, T41 and S42 all substituted with alanine; source: E. coli, purified
# Target: T1, Rad51
# Assay: pull-down; GST-Hed1 WT or 3A (0.6 ug) incubated with Rad51 (0.6 ug), affinity pull-down with Glutathione Sepharose beads; supernatant, wash and SDS-eluate analysed by SDS-PAGE and Coomassie staining
# Conditions: both partners purified
row,Binder,binding result
1,B1,binds
2,B2,binds
